In paper doi:10.1101/2024.11.13.623393:

Target: microtubule polymers (alpha/beta tubulin)
Assay: co-sedimentation

fold reduction in binding affinity against wild-type Smc5: 3 fold
B1: Smc5-2KE hinge domain (residues 215 to 885, K624E K631E) (domain or fragment)
chain: LRELQGNEQSLQKDLDFKKAKIVHLRQESDKLRKSVESLRDFQNKKGEIELHSQLLPYVKVKDHKEKLNIYKEEYERAKANLRAILKDKKPFANTKKTLENQVEELTEKCSLKTDEFLKAKEKINEIFEKLNTIRDEVIKKKNQNEYYRGRTKKLQATIISTKEDFLRSQEILAQTHLPEKSVFEDIDIKRKEIINKEGEIRDLISEIDAKANAINHEMRSIQRQAESKTKSLTTTDKIGILNQDQDLKEVRDAVLMVREHPEMKDKILEPPIMTVSAINAQFAAYLAQCVDYNTSKALTVVDSDSYKLFANPILDKFKVNLRELSSADTTPPVPAETVRDLGFEGYLSDFITGDKRVMKMLCQTSKIHTIPVSRRELTPAQIKKLITPRPNGKILFKRIIHGNRLVDIEQSAYGSEQVFPTDVSIKQTNFYQGSIMSNEQKIRIENEIINLKNEYNDRKSTLDALSNQKSGYRHELSELASKNDDINREAHQLNEIRKKYTMRKSTIETLREKLDQLKREARKDVSQKIKDIDDQIQQLLLKQRHLLSKMASSMKSLKNCQKELISTQILQFEAQNMDVSMNDVIGFFNEREADLKSQYEDKKKFVKEMRDTPEFQSWMREIRSYDQDTKEKLNKVAEKYEEEGNFNLSFVQDVLDKLESEIAMVNHDES
